Experimental data as given in US20140378382A1 (WISCONSIN ALUMNI RESEARCH FOUNDATION, published 2014).
Non-standard residues stand in square brackets, D forms with d. Primed or numbered codes have the meaning given here. No end group written: not given here. APC = aminopyrrolidine carboxylic acid (2-aminopyrrolidine-4-carboxylic acid); ACPC(3) = 2-aminocyclopentane carboxylic acid (cyclic beta residue); ACPC″ = 2-aminocyclopentane carboxylic acid (X); ACPC = 2-aminocyclopentane carboxylic acid; β3hW = N[C@H](CC(=O)O)Cc1c[nH]c2ccccc12; hArg = N=C(N)NCCCC[C@H](N)C(=O)O; β3hE = N[C@@H](CCC(=O)O)CC(=O)O; β3hF = N[C@H](CC(=O)O)Cc1ccccc1; β3hL = CC(C)C[C@H](N)CC(=O)O; β3hK = NCCCC[C@H](N)CC(=O)O; β3hM = CSCC[C@H](N)CC(=O)O; β3hD = NC(CC(=O)O)CC(=O)O; β3hS = N[C@@H](CO)CC(=O)O; Aib = CC(C)(N)C(=O)O

T1: PTHR-1 (species and cells not stated for the assay) (Homo sapiens (Human), UniProt Q03431 27-593)
T1 sequence: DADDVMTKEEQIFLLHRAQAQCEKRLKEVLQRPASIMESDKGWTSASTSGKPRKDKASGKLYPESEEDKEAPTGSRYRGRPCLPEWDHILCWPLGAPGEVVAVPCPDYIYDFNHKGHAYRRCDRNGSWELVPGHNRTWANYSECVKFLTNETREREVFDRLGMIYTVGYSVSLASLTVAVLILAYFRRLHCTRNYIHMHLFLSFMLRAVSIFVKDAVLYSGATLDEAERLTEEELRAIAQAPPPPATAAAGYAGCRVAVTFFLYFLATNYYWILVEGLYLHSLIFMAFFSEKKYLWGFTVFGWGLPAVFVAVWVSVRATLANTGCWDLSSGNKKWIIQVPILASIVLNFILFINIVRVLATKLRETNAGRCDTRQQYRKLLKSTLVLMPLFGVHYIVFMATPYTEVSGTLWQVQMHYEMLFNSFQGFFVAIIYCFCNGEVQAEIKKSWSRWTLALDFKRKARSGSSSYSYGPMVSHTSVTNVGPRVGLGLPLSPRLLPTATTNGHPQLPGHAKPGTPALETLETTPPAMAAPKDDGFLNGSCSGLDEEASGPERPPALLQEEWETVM

T2: rat parathyroid hormone receptor 1, wild-type (rPTHR-1) (rat, UniProt P25961 27-591)
T2 sequence (looked up): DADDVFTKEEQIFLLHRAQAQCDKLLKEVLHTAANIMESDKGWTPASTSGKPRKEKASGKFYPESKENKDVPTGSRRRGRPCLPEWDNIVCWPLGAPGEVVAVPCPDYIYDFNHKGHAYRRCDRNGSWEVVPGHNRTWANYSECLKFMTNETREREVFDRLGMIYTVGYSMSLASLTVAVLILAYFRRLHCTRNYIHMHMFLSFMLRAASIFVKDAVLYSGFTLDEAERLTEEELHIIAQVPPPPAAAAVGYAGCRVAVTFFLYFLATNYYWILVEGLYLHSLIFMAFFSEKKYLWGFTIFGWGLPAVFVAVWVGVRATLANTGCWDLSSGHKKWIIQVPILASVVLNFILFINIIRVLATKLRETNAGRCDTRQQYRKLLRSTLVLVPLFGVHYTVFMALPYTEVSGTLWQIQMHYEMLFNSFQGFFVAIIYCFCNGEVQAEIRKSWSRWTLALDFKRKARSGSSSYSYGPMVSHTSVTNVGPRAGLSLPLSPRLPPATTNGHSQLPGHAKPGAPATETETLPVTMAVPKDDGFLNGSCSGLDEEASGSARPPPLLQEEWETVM

T3: delNT PTHR1 (human, UniProt Q03431 27-593)
T3 sequence (looked up): T1 sequence

B1: CycD6_ACPC(1,5,7) (peptide)
peptide: [ACPC]VSE[ACPC]Q[ACPC]MHNLGK[ACPC]LNS[ACPC]ERVEWLR[APC]KLQDVHN[ACPC]-NH2
modifications: not fully specified; printed as XVSEXQXMHNLGKXLNSXERVEWLRZKLQDVHNX-NH2; also: further β3 residues, positions not shown (marking lost)
B2: D6_ACPC(1,5,7) (peptide)
peptide: [ACPC]VSE[ACPC]Q[ACPC]MHNLGKWLNSMERVEWLRKKLQDVHNF-NH2
modifications: not fully specified; printed as XVSEXQXMHNLGKWLNSMERVEWLRKKLQDVHNF-NH2; also: D6 β3 residues, positions not shown (marking lost)
B3: CycD6_ACPC(1,7) (peptide)
peptide: [ACPC]VSEIQ[ACPC]MHNLGK[ACPC]LNS[ACPC]ERVEWLR[APC]KLQDVHN[ACPC]-NH2
modifications: not fully specified; printed as XVSEIQXMHNLGKXLNSXERVEWLRZKLQDVHNX-NH2; also: further β3 residues, positions not shown (marking lost)
B4: D6_ACPC(1,7) (peptide)
peptide: [ACPC]VSEIQ[ACPC]MHNLGKWLNSMERVEWLRKKLQDVHNF-NH2
modifications: not fully specified; printed as XVSEIQXMHNLGKWLNSMERVEWLRKKLQDVHNF-NH2; also: D6 β3 residues, positions not shown (marking lost)

The binders below were run against T1, PTHR-1 (species and cells not stated …) (assay: cell-based or functional assay).

Row | Fold PTH [fold] | cAMP EC50 [nM] | Binder
1 | 9.5 | 0.78 | [ACPC″]V[Aib]E[ACPC″]Q[ACPC″]MHQ[hArg]AK[ACPC″]LNS[ACPC″]RRV[APC]WLR[APC]KLQ[ACPC″]VHN[ACPC″]-NH2 [M-X1,5,7-FcycD6]
2 | 9.7 | 0.79 | [ACPC″]V[Aib]E[ACPC″]Q[ACPC″]MHQ[hArg]AK[β3hW]LNS[β3hM]RRV[β3hE]WLR[β3hK]KLQ[β3hD]VHN[β3hF]-NH2 (also: β3 residues (bold, underlined) not marked in the text) [M-X1,5,7-D6]
3 | 6.3 | 0.52 | [ACPC″]V[Aib]EIQ[ACPC″]MHQ[hArg]AKWLNSMRRVEWLRKKLQDVHNF-NH2 [M-ACPC(1,7)]
4 | 5.4 | 0.44 | AVAEIQ[ACPC″]MHQ[hArg]AKWLNSMRRVEWLRKKLQDVHNF-NH2 (not fully specified (residues 14, 18, 22, 26, 30, 34)) [M-D6]
5 | 6.3 | 0.51 | AVAEIQ[ACPC″]MHQ[hArg]AK[ACPC″]LNS[ACPC″]RRV[APC]WLR[APC]KLQ[ACPC″]VHN[ACPC″]-NH2 [M-FcycD6]
6 | 10.2 | 0.83 | [ACPC″]V[Aib]EIQ[ACPC″]MHQ[hArg]AK[β3hW]LNS[β3hM]RRV[β3hE]WLR[β3hK]KLQ[β3hD]VHN[β3hF]-NH2 (also: β3 residues (bold, underlined) not marked in the text) [M-D6_ACPC(1,7)]
7 | 4.9 | 0.4 | [ACPC″]V[Aib]E[ACPC″]Q[ACPC″]MHQ[hArg]AKWLNSMRRVEWLRKKLQDVHNF-NH2 [M-ACPC(1,5,7)]
8 | 21.8 | 1.77 | [ACPC″]V[Aib]EIQ[ACPC″]MHQ[hArg]AK[ACPC″]LNS[ACPC″]RRV[APC]WLR[APC]KLQ[ACPC″]VHN[ACPC″]-NH2 [M-FcycD6_ACPC(1,7)]
9 | 3.8 | 0.31 | H[ACPC(3)]V[Aib]E[ACPC(3)]Q[ACPC(3)]MHQ[hArg]AK[ACPC(3)]LNS[ACPC(3)]RRV[β3hE]WLR[APC]KLQ[β3hD]VHN[ACPC(3)]-NH2 (not fully specified) [M-X1,5,7-CycD6]

These binders were tested against T2, rat parathyroid hormone receptor 1, … (assay: cell-based or functional assay).

Row | cAMP Max [cps × 10-3] | Binder
10 | 48 | SVSEIQLMHNLGKHLNSMERVEWLRKKLQDVHNF-NH2 (also: five β3 residues, αααβ pattern, positions not given here) [C5]
11 | 54 | SVSEIQLMHNLGKHLNSMERVEWLRKKLQDVHNF-NH2 (not fully specified (residue 19)) [A5]
12 | 68 | SVSEIQLMHNLGKHLNSMERVEWLRKKLQDVHNF-NH2 (also: three β3 residues, αααβ pattern, positions not given here) [C3]
13 | 65 | SVSEIQLMHNLGKHLNSMERVEWLRKKLQDVHNF-NH2 (also: three β3 residues, αααβ pattern, positions not given here) [D3]
14 | 43 | SVSEIQLMHNLGKHLNSMERVEWLRKKLQDVHNF-NH2 (also: five β3 residues, αααβ pattern, positions not given here) [D5]

Target: T1, PTHR-1 (species and cells not stated …)
Assay: cell-based or functional assay
Remark: another data set of the same source

Row | Fold PTH [fold] | cAMP EC50 [nM] | Binder
15 | 266 | 21.7 | B1
16 | 2040 | 167 | B2
17 | 8.7 | 0.71 | [ACPC″]VSEIQ[ACPC″]MHNLGK[ACPC″]LNS[ACPC″]ERV[APC]WLR[APC]KLQ[ACPC″]VHN[ACPC″]-NH2 [FcycD6_ACPC(1,7)]
18 | 1.3 | 0.1 | SVSEIQLMHNLGK[ACPC″]LNS[ACPC″]ERV[β3hE]WLR[APC]KLQ[β3hD]VHN[ACPC″]-NH2 (also: β3 residues (bold, underlined) not marked in the text) [cycD6]
19 | 3.2 | 0.26 | SVSEIQLMHNLGK[ACPC]LNS[ACPC]ERV[APC]WLR[APC]KLQ[ACPC]VHN[ACPC]-NH2 (not fully specified; printed as SVSEIQLMHNLGKXLNSXERVZWLRZKLQXVHNX-NH2) [FcycD6]
20 | 7.3 | 0.59 | B3
21 | 1.7 | 0.14 | [ACPC]VSEIQ[ACPC]MHNLGKHLNSMERVEWLRKKLQDVHNF-NH2 [ACPC(1,7)]
22 | 22.6 | 1.84 | B4

The binders below were run against T3, delNT PTHR1 (assay: cell-based or functional assay).

Row | Fold PTH [fold] | cAMP EC50 [nM] | Binder
23 | 87 | 5400 | SVSEIQLMZNLGKHLNSMERVEWLRKKLQDVHNF (APC (Z) at 9; C-terminal amide) [APC(9) PTH(1-34)]
24 | – | 15000 | SVS[β3hE]IQLMHNLGKHLNSMERVEWLRKKLQDVHNF-NH2 [β3Glu(4) PTH(1-34)]
25 | 510 | 32000 | SVS[ACPC]IQLMHNLGKHLNSMERVEWLRKKLQDVHNF-NH2 [ACPC(4) PTH(1-34)]
26 | – | 340000 | SV[β3hS]EIQLMHNLGKHLNSMERVEWLRKKLQDVHNF-NH2 [β3Ser(3) PTH(1-34)]
27 | – | 20000 | SVSEIQL[β3hM]HNLGKHLNSMERVEWLRKKLQDVHNF-NH2 [β3Met(8) PTH(1-34)]
28 | – | 67000 | SVSEIQ[β3hL]MHNLGKHLNSMERVEWLRKKLQDVHNF-NH2 [β3Leu(7) PTH(1-34)]
